Assays:
Test in all cases: cell-based or functional assay
rat Y2 receptor (rat) = molecular target: rat Y2 receptor (rat)
[1] = molecular target: human Y1 receptor (human) (UniProt P25929)
[2] = molecular target: rhesus monkey Y2 receptor (rhesus monkey) (UniProt Q9GK74)
[3] = molecular target: mouse Y2 receptor (mouse) (UniProt P97295)
CRHR1 = molecular target: CRHR1
CRHR2 = molecular target: CRHR2
[4] = molecular target: mouse GLP1 receptor (mouse) (UniProt O35659)
[5] = molecular target: rat glucagon receptor (rat) (UniProt P30082)
[6] = molecular target: mouse glucagon receptor (mouse) (UniProt Q61606)
[7] = molecular target: cynomolgus monkey GLP1 receptor (cynomolgus monkey) (UniProt F8V479)
[8] = molecular target: human glucagon receptor (human) (UniProt P47871)
[9] = molecular target: cynomolgus monkey glucagon receptor (cynomolgus monkey)
[10] = molecular target: human GLP1 receptor (human) (UniProt P43220)
Sequence of human GLP1 receptor (human) (P43220 24-463): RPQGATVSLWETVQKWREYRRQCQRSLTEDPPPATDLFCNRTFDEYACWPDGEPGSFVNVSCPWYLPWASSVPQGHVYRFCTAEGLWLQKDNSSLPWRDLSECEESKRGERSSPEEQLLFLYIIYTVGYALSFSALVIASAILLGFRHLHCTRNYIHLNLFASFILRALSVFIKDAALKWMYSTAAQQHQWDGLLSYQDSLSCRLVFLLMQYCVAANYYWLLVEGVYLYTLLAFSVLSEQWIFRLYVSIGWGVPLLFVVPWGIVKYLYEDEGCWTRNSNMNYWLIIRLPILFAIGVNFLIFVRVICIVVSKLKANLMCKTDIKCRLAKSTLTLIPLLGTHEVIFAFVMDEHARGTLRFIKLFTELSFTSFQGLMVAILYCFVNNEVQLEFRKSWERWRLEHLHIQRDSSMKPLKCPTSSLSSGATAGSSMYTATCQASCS

Sequence of mouse GLP1 receptor (mouse) (O35659 22-463): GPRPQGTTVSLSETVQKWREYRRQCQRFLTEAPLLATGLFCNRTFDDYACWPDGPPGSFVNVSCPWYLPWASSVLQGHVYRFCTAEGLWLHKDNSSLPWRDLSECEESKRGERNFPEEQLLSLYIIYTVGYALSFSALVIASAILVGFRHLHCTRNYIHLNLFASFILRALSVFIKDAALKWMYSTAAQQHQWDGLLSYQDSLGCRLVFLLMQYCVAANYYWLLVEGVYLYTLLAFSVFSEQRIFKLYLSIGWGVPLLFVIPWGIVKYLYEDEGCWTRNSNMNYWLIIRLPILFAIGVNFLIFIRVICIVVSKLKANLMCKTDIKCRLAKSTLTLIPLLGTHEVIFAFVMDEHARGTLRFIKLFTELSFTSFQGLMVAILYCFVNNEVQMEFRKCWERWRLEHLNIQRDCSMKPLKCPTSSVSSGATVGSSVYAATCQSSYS
Sequence of rhesus monkey Y2 receptor (rhesus monkey) (Q9GK74 whole entry): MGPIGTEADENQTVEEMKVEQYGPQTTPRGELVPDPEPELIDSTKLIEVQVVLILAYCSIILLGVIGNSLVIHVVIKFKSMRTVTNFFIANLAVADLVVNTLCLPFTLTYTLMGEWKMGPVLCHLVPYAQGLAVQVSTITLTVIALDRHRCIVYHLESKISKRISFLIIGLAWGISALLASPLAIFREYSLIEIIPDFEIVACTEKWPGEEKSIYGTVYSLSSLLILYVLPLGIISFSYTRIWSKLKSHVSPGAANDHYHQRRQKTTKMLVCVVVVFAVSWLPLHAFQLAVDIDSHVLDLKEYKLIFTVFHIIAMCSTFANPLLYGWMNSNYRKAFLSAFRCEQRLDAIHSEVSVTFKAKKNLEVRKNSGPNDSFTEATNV
Sequence of mouse Y2 receptor (mouse) (P97295 whole entry): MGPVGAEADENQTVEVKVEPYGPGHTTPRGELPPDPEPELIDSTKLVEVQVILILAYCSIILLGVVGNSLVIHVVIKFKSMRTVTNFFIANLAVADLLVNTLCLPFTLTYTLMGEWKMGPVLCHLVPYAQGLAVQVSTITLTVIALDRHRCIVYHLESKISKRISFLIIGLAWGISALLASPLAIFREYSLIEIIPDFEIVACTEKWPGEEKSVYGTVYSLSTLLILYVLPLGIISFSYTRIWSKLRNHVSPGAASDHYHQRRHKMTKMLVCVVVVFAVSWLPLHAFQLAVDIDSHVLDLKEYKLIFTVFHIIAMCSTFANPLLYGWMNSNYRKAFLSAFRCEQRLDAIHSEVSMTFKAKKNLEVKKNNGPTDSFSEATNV
Sequence of rat glucagon receptor (rat) (P30082 27-485): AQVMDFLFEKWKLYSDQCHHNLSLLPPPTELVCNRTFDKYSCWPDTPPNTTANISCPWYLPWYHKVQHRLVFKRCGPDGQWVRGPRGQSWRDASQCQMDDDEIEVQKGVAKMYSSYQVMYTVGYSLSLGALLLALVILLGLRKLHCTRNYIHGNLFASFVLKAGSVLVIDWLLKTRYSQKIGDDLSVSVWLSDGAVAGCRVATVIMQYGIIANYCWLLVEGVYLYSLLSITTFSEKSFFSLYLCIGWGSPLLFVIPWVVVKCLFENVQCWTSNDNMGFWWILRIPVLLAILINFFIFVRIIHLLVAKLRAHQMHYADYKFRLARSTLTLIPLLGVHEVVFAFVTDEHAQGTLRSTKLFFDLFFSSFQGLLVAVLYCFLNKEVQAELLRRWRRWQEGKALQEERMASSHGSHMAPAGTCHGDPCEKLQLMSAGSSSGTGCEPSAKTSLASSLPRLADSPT
Sequence of human glucagon receptor (human) (P47871 26-477): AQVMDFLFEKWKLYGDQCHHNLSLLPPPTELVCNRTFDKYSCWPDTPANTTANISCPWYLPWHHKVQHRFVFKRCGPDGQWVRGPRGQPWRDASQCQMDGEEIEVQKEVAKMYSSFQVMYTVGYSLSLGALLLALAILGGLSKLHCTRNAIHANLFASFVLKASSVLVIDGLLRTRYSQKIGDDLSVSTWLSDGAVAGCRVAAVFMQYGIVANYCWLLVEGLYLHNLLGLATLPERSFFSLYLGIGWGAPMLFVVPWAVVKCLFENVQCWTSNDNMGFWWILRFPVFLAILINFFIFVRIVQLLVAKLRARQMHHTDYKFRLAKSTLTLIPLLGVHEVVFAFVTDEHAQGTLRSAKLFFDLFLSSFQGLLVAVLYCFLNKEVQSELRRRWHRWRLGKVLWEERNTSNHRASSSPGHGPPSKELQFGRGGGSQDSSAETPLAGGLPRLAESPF
Sequence of mouse glucagon receptor (mouse) (Q61606 27-485): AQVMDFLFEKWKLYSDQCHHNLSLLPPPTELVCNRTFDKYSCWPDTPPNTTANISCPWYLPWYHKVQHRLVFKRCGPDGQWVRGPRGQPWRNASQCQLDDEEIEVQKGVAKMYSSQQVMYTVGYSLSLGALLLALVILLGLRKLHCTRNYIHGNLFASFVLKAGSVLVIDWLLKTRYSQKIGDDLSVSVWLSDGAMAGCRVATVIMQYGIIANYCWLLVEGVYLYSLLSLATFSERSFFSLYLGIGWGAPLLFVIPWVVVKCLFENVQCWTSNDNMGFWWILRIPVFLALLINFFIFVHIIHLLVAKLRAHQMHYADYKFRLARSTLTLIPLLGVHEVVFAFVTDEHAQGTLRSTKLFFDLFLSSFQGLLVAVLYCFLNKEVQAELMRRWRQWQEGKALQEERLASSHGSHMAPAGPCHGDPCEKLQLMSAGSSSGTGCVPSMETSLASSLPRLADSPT
Sequence of human Y1 receptor (human) (P25929 whole entry): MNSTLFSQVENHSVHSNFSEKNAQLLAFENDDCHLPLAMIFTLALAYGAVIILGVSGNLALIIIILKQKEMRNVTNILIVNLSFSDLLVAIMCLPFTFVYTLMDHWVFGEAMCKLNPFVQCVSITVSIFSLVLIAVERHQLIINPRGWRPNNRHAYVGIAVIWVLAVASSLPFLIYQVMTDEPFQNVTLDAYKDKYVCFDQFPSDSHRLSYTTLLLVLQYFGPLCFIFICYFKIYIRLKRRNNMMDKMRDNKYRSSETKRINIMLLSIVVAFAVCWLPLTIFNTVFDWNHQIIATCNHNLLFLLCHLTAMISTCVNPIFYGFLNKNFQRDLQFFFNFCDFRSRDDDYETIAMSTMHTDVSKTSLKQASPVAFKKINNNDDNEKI

PYY3-36 (peptide)
EC50, cAMP assay (LANCE) on receptor-expressing cells (rat Y2 receptor (rat)): 0.5 nM
EC50, cAMP assay (LANCE) on receptor-expressing cells [1]: 66.4 nM
EC50, cAMP assay (LANCE) on receptor-expressing cells [2]: 0.06 nM
EC50, cAMP assay (LANCE) on receptor-expressing cells [3]: 0.03 nM

Sauvagine (from UniProt P01144 1-40) (peptide)
RC50, cAMP assay (CRHR1): 0.000308 µM
RC50, cAMP assay (CRHR2): 0.0034 µM

Sauvagine (from UniProt P01144 1-40) (peptide; unit assumed)
Max response, cAMP assay (CRHR1): 106%
Max response, cAMP assay (CRHR2): 107%

Ser-8 GLP1 (peptide)
EC50, receptor cAMP assay [4]: 0.06 nM
EC50, receptor cAMP assay [5]: > 100 nM
EC50, receptor cAMP assay [6]: > 100 nM
EC50, receptor cAMP assay [7]: 0.08 nM
EC50, receptor cAMP assay [8]: > 100 nM
EC50, receptor cAMP assay [9]: > 100 nM
EC50, receptor cAMP assay [10]: 0.07 nM
